Data on one substance can be found in patent US9260517B2, “Human monoclonal antibodies to human nucleolin” (MUSC Foundation for Research Development, priority 2009, dated 2016).

The target in experiment [1] is T1, cell surface nucleolin on MV4-11 AML cells (Homo sapiens, UniProt P19338).
T1 construct: endogenous in cells; host or cells: MV4-11 cells
The experiment can be described thus: Flow cytometry (FACS) binding to MV4-11 cells. Conditions: 5 μg/ml, 30 min on ice. How it is done:
(§1) FIG. 12. Binding of HuMAbs to cell surface nucleolin and cytotoxicity to MV4-11 leukemia cells. (FIG. 12A) Anti-nucleolin HuMabs or Rituxan^R (5 μg/ml) were incubated with MV4-11 or normal tonsil cells for 30 min on ice, washed, then incubated with APC-labeled anti-human IgG (Miltenyi). Flow cytometry was performed on a FACSCaliber, and median fluorescence intensity (MFI) is shown.
analysis was performed using a Becton Dickinson FACSCalibur instrument at the MUSC Flow Cytometry Facility, according to established methods. Infection efficiency of B cells infected with […] was assessed by measuring fluorescence of Green Fluorescent Protein 24 h post-infection. Antibodies used to characterize human B cells were obtained from BD Biosciences and are specific for human CD20, CD19, CD23, CD27, CD30, CD38, IgD, IgM, and IgG.
A general note: Flow cytometry measures light scatter and fluorescence of single cells or particles in a stream.

In another experiment the test system is normal tonsil cells. As to the kind of experiment: Flow cytometry binding to normal tonsil cells. Also on record: species or system human. Conditions: 5 μg/ml, 30 min on ice. How it is done:
as §1

T1 sequence (P19338 whole entry): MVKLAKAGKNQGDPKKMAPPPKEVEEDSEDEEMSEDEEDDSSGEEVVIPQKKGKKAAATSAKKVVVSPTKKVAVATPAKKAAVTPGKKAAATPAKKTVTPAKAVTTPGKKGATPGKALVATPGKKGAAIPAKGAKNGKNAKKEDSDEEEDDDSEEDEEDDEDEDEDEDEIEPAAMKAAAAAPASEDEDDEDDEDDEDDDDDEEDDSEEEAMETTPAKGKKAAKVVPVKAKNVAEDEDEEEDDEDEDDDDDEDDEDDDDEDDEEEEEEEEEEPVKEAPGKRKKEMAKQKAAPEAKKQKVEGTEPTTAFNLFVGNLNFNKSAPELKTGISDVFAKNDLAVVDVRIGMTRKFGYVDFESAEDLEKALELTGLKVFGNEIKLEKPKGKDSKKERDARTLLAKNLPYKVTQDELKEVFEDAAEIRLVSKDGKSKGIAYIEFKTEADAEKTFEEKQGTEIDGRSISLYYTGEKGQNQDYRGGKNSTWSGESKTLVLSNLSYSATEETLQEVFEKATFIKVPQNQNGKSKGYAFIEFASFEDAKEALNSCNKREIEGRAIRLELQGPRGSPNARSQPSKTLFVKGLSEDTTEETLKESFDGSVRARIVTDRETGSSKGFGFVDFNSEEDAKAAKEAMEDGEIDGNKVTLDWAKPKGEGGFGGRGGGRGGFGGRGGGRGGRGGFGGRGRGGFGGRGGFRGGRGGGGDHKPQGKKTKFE

For the substance rituximab, in experiment [1], the “binding to MV4-11 cells by flow cytometry” value is “not to MV4-11 cells”. Besides, the “binding to normal tonsil cells by flow cytometry” value in the experiment with normal tonsil cells is “bound to normal tonsil cells”.
